In the supplement of paper PMC10567573:

B1: DVL3 (parent)
chain: YNPHPGFPELGYSYGGGSASSQHS

Variants of: B1
Assay: protein stability index of a GFP-peptide fusion (GPS, HEK-293T) (PSI 1-6); higher = more stable
Settings: c terminus: a fixed tail appended
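Further: lentivirally expressed fusions sorted by FACS into six bins by GFP to DsRed ratio, PSI derived from sequencing read proportions per bin multiplied by bin number.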

Row | Variant | protein stability index
1 | YNPHPGFPELGYDYGGGSASSQHS [S13D] | 3.52
2 | YNPHPGFPELGYVYGGGSASSQHS [S13V] | 1.71
3 | YNPHPGFPELGYHYGGGSASSQHS [S13H] | 2.59
4 | YNPHPGFPELGYTYGGGSASSQHS [S13T] | 2.23
5 | YNPHPGFPELGYAYGGGSASSQHS [S13A] | 2.95
6 | YNPHPGFPELGYNYGGGSASSQHS [S13N] | 3.08
7 | YNPHPGFPELGYEYGGGSASSQHS [S13E] | 3.71
8 | YNPHPGFPELGYLYGGGSASSQHS [S13L] | 2.13
9 | YNPHPGFPELGYIYGGGSASSQHS [S13I] | 2.24
10 | YNPHPGFPELGYRYGGGSASSQHS [S13R] | 2.85
11 | YNPHPGFPELGYCYGGGSASSQHS [S13C] | 1.78
12 | YNPHYGFPELGYSYGGGSASSQHS [P5Y] | 2.35
13 | YNPHIGFPELGYSYGGGSASSQHS [P5I] | 2.4
14 | YNPHGGFPELGYSYGGGSASSQHS [P5G] | 2.32
15 | YNPHMGFPELGYSYGGGSASSQHS [P5M] | 2.31
16 | YNPHNGFPELGYSYGGGSASSQHS [P5N] | 2.75
17 | YNPHRGFPELGYSYGGGSASSQHS [P5R] | 2.37
18 | YNPHDGFPELGYSYGGGSASSQHS [P5D] | 3.67
19 | YNPHLGFPELGYSYGGGSASSQHS [P5L] | 2.59
20 | YNPHTGFPELGYSYGGGSASSQHS [P5T] | 2.36
21 | YNPHWGFPELGYSYGGGSASSQHS [P5W] | 2.2
22 | YNPHEGFPELGYSYGGGSASSQHS [P5E] | 3.27
23 | YNPHPGFPELGFSYGGGSASSQHS [Y12F] | 3.09
24 | YNPHPGFPELGISYGGGSASSQHS [Y12I] | 2.06

Row | Variant | protein stability index
25 | YNPHPGFPELGASYGGGSASSQHS [Y12A] | 2.87
26 | YNPHPGFPELGQSYGGGSASSQHS [Y12Q] | 3.42
27 | YNPHPGFPELGESYGGGSASSQHS [Y12E] | 3.79
28 | YNPHPGFPELGSSYGGGSASSQHS [Y12S] | 3.15
29 | YNPHPGFPELGYSYGGGSASSQKS [H23K] | 2.87
30 | YNPHPGFPELGYSYGGGSASSQVS [H23V] | 2.32
31 | YNPHPGFPELGYSYGGGSASSQQS [H23Q] | 2.58
32 | YNPHPGFPELGYSYGGGSASSQTS [H23T] | 3.2
33 | YNPHPGFPELGYSYGGGSASSQIS [H23I] | 2.9
34 | YNPHPGFPELGYSYGGGSASSQCS [H23C] | 2.38
35 | YNPHPGFPELGYSYGGGSASSQES [H23E] | 2.6
36 | YNPHPGFPELGYSYGGGSASSQMS [H23M] | 3.04
37 | YNPHPGFPELGYSYGGGSASSQSS [H23S] | 2.62
38 | YNPHPGFPELGYSYGGGYASSQHS [S18Y] | 2.11
39 | YNPHPGFPELGYSYGGGVASSQHS [S18V] | 2.72
40 | YNPHPGFPELGYSYGGGNASSQHS [S18N] | 3
41 | YNPHPGFPELGYSYGGGQASSQHS [S18Q] | 2.92
42 | YNPHPGFPELGYSYGGGCASSQHS [S18C] | 2.57
43 | YNPHPGFPELGYSYGGGFASSQHS [S18F] | 2.58
44 | YNPHPGFPELGYSYGGGRASSQHS [S18R] | 2.44
45 | YNPHPGFPELGYSYGGGMASSQHS [S18M] | 2.08
46 | YNPHPGFPELGYSYGGGTASSQHS [S18T] | 2.26
47 | YNPHPGFPELGYSYGGGHASSQHS [S18H] | 2.53
48 | INPHPGFPELGYSYGGGSASSQHS [Y1I] | 3

Row | Variant | protein stability index
49 | VNPHPGFPELGYSYGGGSASSQHS [Y1V] | 3.12
50 | GNPHPGFPELGYSYGGGSASSQHS [Y1G] | 4.47
51 | QNPHPGFPELGYSYGGGSASSQHS [Y1Q] | 4.53
52 | CNPHPGFPELGYSYGGGSASSQHS [Y1C] | 2.33
53 | TNPHPGFPELGYSYGGGSASSQHS [Y1T] | 4.25
54 | LNPHPGFPELGYSYGGGSASSQHS [Y1L] | 3.88
55 | YNPHPGFPELGYSYGKGSASSQHS [G16K] | 2.93
56 | YNPHPGFPELGYSYGNGSASSQHS [G16N] | 2.99
57 | YNPHPGFPELGYSYGCGSASSQHS [G16C] | 2.04
58 | YNPHPGFPELGYSYGHGSASSQHS [G16H] | 2.72
59 | YNPHPGFPELGYSYGLGSASSQHS [G16L] | 2.3
60 | YNPHPGFPELGYSYGTGSASSQHS [G16T] | 2.57
61 | YNPHPGFPELGYSYGSGSASSQHS [G16S] | 2.95
62 | YNPHPGFPGLGYSYGGGSASSQHS [E9G] | 2.16
63 | YNPHPGFPHLGYSYGGGSASSQHS [E9H] | 2.19
64 | YNPHPGFPDLGYSYGGGSASSQHS [E9D] | 2.11
65 | YNPHPGFPCLGYSYGGGSASSQHS [E9C] | 2.5
66 | YNPHPGFPTLGYSYGGGSASSQHS [E9T] | 1.84
67 | YNPHPGFPELGYSMGGGSASSQHS [Y14M] | 2.86
68 | YNPHPGFPELGYSSGGGSASSQHS [Y14S] | 3.48
69 | YNPHPGFPELGYSDGGGSASSQHS [Y14D] | 3.38
70 | YNPHPGFPELGYSTGGGSASSQHS [Y14T] | 3.24
71 | YNPHPGFPELGYSAGGGSASSQHS [Y14A] | 3.77
72 | YNPHPGFPELGYSEGGGSASSQHS [Y14E] | 4.1

Row | Variant | protein stability index
73 | YNPHPGFPELGYSHGGGSASSQHS [Y14H] | 3.71
74 | YNPHPGFPELGYSLGGGSASSQHS [Y14L] | 2.69
75 | YNPHPGFPELGYSPGGGSASSQHS [Y14P] | 3.32
76 | YNPHPGFPELGYSVGGGSASSQHS [Y14V] | 3.26
77 | YDPHPGFPELGYSYGGGSASSQHS [N2D] | 3.64
78 | YEPHPGFPELGYSYGGGSASSQHS [N2E] | 3.75
79 | YYPHPGFPELGYSYGGGSASSQHS [N2Y] | 2.87
80 | YVPHPGFPELGYSYGGGSASSQHS [N2V] | 1.82
81 | YTPHPGFPELGYSYGGGSASSQHS [N2T] | 2.23
82 | YCPHPGFPELGYSYGGGSASSQHS [N2C] | 2.12
83 | YNPHPGFPELGYSYGGGSASDQHS [S21D] | 3.01
84 | YNPHPGFPELGYSYGGGSASQQHS [S21Q] | 2.79
85 | YNPHPGFPELGYSYGGGSASYQHS [S21Y] | 2.37
86 | YNPHPGFPELGYSYGGGSASEQHS [S21E] | 2.96
87 | YNPHPGFPELGYSYGGGSASHQHS [S21H] | 2.55
88 | YNPHPGFPELGYSYGGGSASTQHS [S21T] | 2.64
89 | YNPHPGFPELGYSYGGGSASKQHS [S21K] | 2.54
90 | YNPHPGFWELGYSYGGGSASSQHS [P8W] | 2.48
91 | YNPHPGFFELGYSYGGGSASSQHS [P8F] | 2.23
92 | YNPHPGFIELGYSYGGGSASSQHS [P8I] | 1.71
93 | YNPHPGFVELGYSYGGGSASSQHS [P8V] | 2.57
94 | YNPHPGFMELGYSYGGGSASSQHS [P8M] | 2.52
